Laboratory results: publication PMC3008307 (Virology, 2010)

B1: GST-rv-cyclin (natural protein)
chain: MDIPVEFLTAQEPLSYGHIPPVYWKELLNWIDRILTHNQATPNTWEATHMVLLKLHGTLSFSNPAQLPLVAAACLQIAAKHTEAHSRLADPDYITMLGDGVYTKPSLLLTETMALFIVGGHVGAYTLAACDWLLGSLPFSQAENDLLHPYMYHYIKLSYRHRTPDYHSSPALRAAVVIAAAVKGADLLEMNMLFIMMYHLTHISTASLSLGLTHFTAALQRQINLDFAEAEQREAAERRALLEREREQQLQEARERLDDVMAVLEAEVAITITTATEGTDAEDTSEVDVINVVDPIG
B2: GST-cyclin C (natural protein, human, UniProt P24863 1-283, looked up)
chain: MAGNFWQSSHYLQWILDKQDLLKERQKDLKFLSEEEYWKLQIFFTNVIQALGEHLKLRQQVIATATVYFKRFYARYSLKSIDPVLMAPTCVFLASKVEEFGVVSNTRLIAAATSVLKTRFSYAFPKEFPYRMNHILECEFYLLELMDCCLIVYHPYRPLLQYVQDMGQEDMLLPLAWRIVNDTYRTDLCLLYPPFMIALACLHVACVVQQKDARQWFAELSVDMEKILEIIRVILKLYEQWKNFDERKEMATILSKMPKPKPPPNSEGEQGPNGSQNSSYSQS

How the values were obtained:
6-His-cdk3 = 6-His-cdk3 (human, UniProt Q00526 1-305); test: pull-down
6-His-cdk8 = 6-His-cdk8 (human, UniProt P49336 1-464); test: pull-down
Sequence of 6-His-cdk8 (P49336 whole entry): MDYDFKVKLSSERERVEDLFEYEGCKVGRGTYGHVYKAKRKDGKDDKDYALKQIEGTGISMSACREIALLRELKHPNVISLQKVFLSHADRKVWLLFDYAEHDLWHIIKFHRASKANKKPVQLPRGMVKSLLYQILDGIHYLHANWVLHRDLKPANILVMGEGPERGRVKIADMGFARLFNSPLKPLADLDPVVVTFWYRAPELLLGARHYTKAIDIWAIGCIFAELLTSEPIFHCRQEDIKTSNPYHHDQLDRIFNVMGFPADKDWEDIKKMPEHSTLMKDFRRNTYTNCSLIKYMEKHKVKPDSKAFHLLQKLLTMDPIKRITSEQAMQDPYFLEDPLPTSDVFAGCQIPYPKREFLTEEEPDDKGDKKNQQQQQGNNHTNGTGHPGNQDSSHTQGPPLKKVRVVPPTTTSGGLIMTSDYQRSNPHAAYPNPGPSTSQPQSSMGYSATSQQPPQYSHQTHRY

Sequence of 6-His-cdk3 (Q00526 whole entry): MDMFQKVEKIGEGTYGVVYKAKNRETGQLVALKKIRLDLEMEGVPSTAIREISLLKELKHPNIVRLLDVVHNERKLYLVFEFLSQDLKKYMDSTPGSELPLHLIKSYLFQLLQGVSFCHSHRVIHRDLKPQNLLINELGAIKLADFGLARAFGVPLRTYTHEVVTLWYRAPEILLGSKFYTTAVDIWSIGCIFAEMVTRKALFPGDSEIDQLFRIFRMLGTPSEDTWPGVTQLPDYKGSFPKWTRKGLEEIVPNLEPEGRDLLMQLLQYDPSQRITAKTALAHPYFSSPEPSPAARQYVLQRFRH

Binder | binding result (6-His-cdk3) | binding result (6-His-cdk8)
B1 | binds | binds
B2 | binds | binds
